The target of this assay is actin (skeletal muscle thin filament) (mouse (endogenous in psoas myofibrils)) (UniProt P68134). Nature of the assay: cryo-EM structure.

Turning to “nebulin (from UniProt E9Q1W3 1-7152) (natural protein)”, the stoichiometry, nebulin simple repeat to actin subunit was found to be 1.

(Values after article doi:10.1101/2021.10.06.463400.)
